{"source": "the DeepSol protein solubility set", "data": [{"test": "soluble on expression in E. coli; label from the status in PepcDB or PDB records", "values": [{"sequence": "MGSDKIHHHHHHMTSAIDKNSQLEAQAWELLEESVIFYQGKPIGTVAAHDPESDALNYDQCFLRDFVPSALVFLMYGKAEIVRNFLVETLKLQSHEKQIDCFEPGAGLMPASFKVHFNGNEEFLVADFGEQAIARVPPIDSCMWWILLLRAYEKATGDLSLARQPDFQAGIKLILDLCLVHRFSMYPTMLVPDGAFMIDRRMGVYEHPLEIQVLFYASLRAASELLLPDGDGDSYLGKVNRRLGSLKYHIRNYYWLDLKRLGEIYRYKDNEFGKEIVNKFNINSESIPSWLTEWLPETGGYLAGNLGPGRIDFRFFALGNLMAILTSLASEKESQSIMNLFVQRWQDLIGYMPVKICFPALEGLEWRIVTGCDSKNRAWSYHNGGNWPVLLWLFASAAQKAGRTELAQAAIAIAERRLLKDKFPEYYDGNNGRLIGKEARINQTWSIAGLLTAKKFVENPDYLELISFAEGLEVPGCSL", "soluble on expression in E. coli": "not soluble"}, {"sequence": "MGSDKIHHHHHHMTSETVLEIRNVSKHFGAVKALTAVDFRLARGEVHALCGENGAGKSTLMNVIAGVLQPSEGEVLIEGAPVKIASPAVAQSLGIALVHQEIALCPDATIAENMFMAATNRRRSALMNYAQLERDAQAVMNRLAPIDVSQKVGDLPISSQQLVEIAKALTLDCRVLIFDEPTAALTETEAQVLFGIIRDLKARGISIIYISHRMAEVFSLCDRVTVFRDGRYVATEMVSDVTPDDVVRLMVGREISQLYPDKQPSSERLGEPILSVRDLGGERFRDVSFELRYGEILGVGGLIGSGRTEIAEGICALRPVTQGEIRLHDKVLRLRRYSDAAKAGVVYLSEDRKGSGVFLDLSIAQNIAALDLKALTSLGLLNSREERALAEDLTRRLGVRMGGVDMPVSSLSGGNQQKVAIAKQLAVDPKVILMDEPTRGIDVGAKSEIHRLLRELARAGIGILVISSELPELIGLCDRVLVVREGRIAGEVSGNEMTEEVIMRLASGIGPATETNLKASGHAA", "soluble on expression in E. coli": "not soluble"}, {"sequence": "MGSDKIHHHHHHMTSKNQSPLASDHPLAMPDTEISAREVFGIDIDMLVPAFSVGSEHVPDVDPAYRFDPDTTKAILAGFAFNRRVMVQGYHGTGKSTHIEQVAARLNWPCIRVNLDSHVSRIDLIGKDAIVVKDGKQITEFREGMLPWALQHPCALVFDEYDAGRPDVMFVIQRVLEVEGRLTLLDQNRVIRPHAAFRLFATANTVGLGDTTGLYHGTQQINQGQMDRWNIVATLNYLAHDDECSIVVAKLKDYDTPEGRDLVSKMVMLADLTRQGFMNGDISTVMSPRTVITWAENTRIFGDHSYGFRVTFLNKCDEVERPILAEYYQRCFGTDLPDGPARMLA", "soluble on expression in E. coli": "not soluble"}, {"sequence": "MGSDKIHHHHHHMTSREEFLEKLAQAGTLNLIFQLTDQCALSCRYCFAKGSHPSGGLRIADDLLDAAIRSAFDTRHHQVSFEWTGGEPFFAGIDFYRKVDRLQKKYATKPYANTIQTSGYVHDRELIAWLAGHGFRISSTIDGPPELHDFQRPVNGGGPSLGAVLATRETIIEHQGHCGCICTVTRNSLGKEGAILDYYRSLGIEAFHSNPYYYFSKNLVGDESLALDADGYAAYFIAQFNAWFEGGRKLPMPGTLNYILRSLTAGAGLKQSVCTFGGRCLTNFLAITPDGDAWLCPKFAGFDEMRLGNVGKMAITDILSDANPAMARLIDERLDAIHTCEADECRFQYLCNAGCPYYSFIASGGRNIAVKDSLCTGKQLLFEYLESVVELIDPARLPEPSPLEHA", "soluble on expression in E. coli": "not soluble"}, {"sequence": "MGSDKIHHHHHHMTTAPLSWEELETLTDYQIDTVNGLTNAKARLRLFGQPESDVRVTLYRDNHAWCPYCQKVWLWLEEKQIPYRIEKVTMFCYGEKESWYKRKVPSGMLPAIELDGRIIKESDDILIALEKVFAPLNQGMEDRMVLPLRQLERLLFRAWCVWLCSRAGSSQQEQRNREQFIEMVARIEEALGRTPSPYFLDSFGIVDVIFTPYLERMNASLYYYKGYSLREENPRLSAWFAAMESRPTYCGTQSDFHTHAHDLPPQMGGCWENGETQMLLNKARVDNGPWFGLPDVAYPEPENSRMEALKRTIEHRINIIRVNPLDDKLFDQALRCALTHMMTGEDYVPPSGADVALRYLRDRINVPRDMSIYAAKRLRESLEKTAALAGDGQPDPIPTKHRRDQDPSNFVIK", "soluble on expression in E. coli": "not soluble"}, {"sequence": "MGSDKIHHHHHHMTTPANAVDTALITRRSIRAFLPTPVPRADIEAILEAASRAPSGTNTQPWKVYVVTGESLARLSRALLAAYDDPQRDALYQEEYPYYPHQWVSPYIDRRRKIGWDLYGLLGITKGDKARMHEQHAQNYRFFGAPVGLFFTIDRVMERGSWLDYGMFLQAIMTAARGRGLDTCPQAAFTQFHRVIAEHLGLPPEEQLVCGMSLGFADEDALVNTLRTEREPVERFTRFLD", "soluble on expression in E. coli": "not soluble"}, {"sequence": "MGSDKIHHHHHHMTTTEQELTLTPLRGKSGKAYKGTYPNGECVFIKLNTTPILPALAKEQIAPQLLWAKRMGNGDMMSAQEWLNGRTLTKEDMNSKQIIHILLRLHKSKKLVNQLLQLNYKIENPYDLLVDFEQNAPLQIQQNSYLQAIVKELKRSLPEFKSEVATIVHGDIKHSNWVITTSGMIFLVDWDSVRLTDRMYDVAYLLSHYIPRSRWSEWLSYYGYKNNDKVMQKIIWYGQFSHLTQILKCFDKRDMEHVNQEIYALRKFREIFRKK", "soluble on expression in E. coli": "not soluble"}, {"sequence": "MGSDKIHHHHHHMVDVEEKSQEVEYVDPTVNRVPNYEVSEKAFLLTQSKVSIEQRKEAAEFVLAKIKEEEMAPYYKYLCEEYLVNNGQSDLEHDEKSDSLNEWIKFDQELYNELCKKNESKIKELNEKIQKLEEDDEGELEQAQAWINLGEYYAQIGDKDNAEKTLGKSLSKAISTGAKIDVMLTIARLGFFYNDQLYVKEKLEAVNSMIEKGGDWERRNRYKTYYGIHCLAVRNFKEAAKLLVDSLATFTSIELTSYESIATYASVTGLFTLERTDLKSKVIDSPELLSLISTTAALQSISSLTISLYASDYASYFPYLLETYANVLIPCKYLNRHADFFVREMRRKVYAQLLESYKTLSLKSMASAFGVSVAFLDNDLGKFIPNKQLNCVIDRVNGIVETNRPDNKNAQYHLLVKQGDGLLTKLQKYGAAVRLTGSDRV", "soluble on expression in E. coli": "not soluble"}, {"sequence": "MGSDKIHHHHHHMVETYTLNPNLTKTAAVAEWLQQRIDWHIYLPNQRVPSVRKLAKLLNISSFTVVQAYEQLVATGVLIAKPSSGYYVNTQSKLVQPNDDKRKVFKHPVIDTRWLVQQVFSDIPHNRSPGVGTLPRDWVRNDKMEWAIRQVTQQADSFIYDYGNVQGYLPLRQQLVQHLHTLGMQTHADHVITTAGVSQAVTMVARLLTQAGDTVVVDGPGWYWLSSCLQQQGLNVVSVERDHQGPNIEQMQKLFAAHRPKLYLTNSVLHNPTSYNLHPARAHQVLNLIHEYDAYIFEDDLYAAFVPGGQVLRYASLDQFERVFYATGFSKSMASGWRVGMLVCPDNYIDDVLRIKTLSNSNTPEFGERVCHHLWTHGEYRRQIKKVQQHLYRAHERMRKALPKIRLIYPEHTQAGLFVWVDMGQDTSQLALDAYKEGWLVAPGQLFYPDVSASTHLRLNVSTTSDEFLRWLGDYLDKSCQY", "soluble on expression in E. coli": "not soluble"}, {"sequence": "MGSDKIHHHHHHMVFFMLIIDVNHGALTLAEEYLNLGYEVDVWDIYQKIKKSEDFKVKYQKLKEKFGNKLNLFFEQPNFEKYDRVIAPIHCPIDVDFIPFTDAVSKILKEKFGNIHKKIINVTGVKGKTTTTSLINHILKDKYSTYLHNSNFGSIAPPTILKVLNSLDIDKYDFFIFETSLGLIKCKYGAITNVLENYKIAGGRKDALTAKFSSLKNAELSFINKRDINRYDLNINHKCLNVVDVDRAKILDKYPLKFKYFDEIFEFSKNIFGLHFVENSLFAIEICKNLVDMEEIRYRLKTFTIKNRMEIKEINKKILVKNINPGLDVKAISYAIKDFLEVFGGDIYIGGDFGIVCEEIDVKKLSEVLKRFNCRYIFVGEIGKELLNYLNGGYIKSYDENKIKRDSLVILREKIK", "soluble on expression in E. coli": "not soluble"}, {"sequence": "MGSDKIHHHHHHMVIDSIRSSSTGPRDAPGKRLAVGISLFARDGQAIWENGIHQNIAFLAMMLKQSDRIGPVYFLNGGDAKALPAGLDLGGLDVPLVQPRDVSHALDVVIEMGAQLPVDWLKHMKALGKKLVVCFVGHTYSGLTETPMFNRPSGHIFNGGPFDEVWILPKSEKIDAPLLRTLTRAPVHVVPHIWSPYFIERRARELEAAGLRFGYAPGRAKWRLSILEPNISVVKTCHYPMLAADEFHRAQPDAVEHLFVVNSLHMKEHPTFVHFANSLDLVREHKATFEPRIDLPSFLAQHGDAVISHQWENPQNYLYYDVLYGGYPLVHNSPMLGDAGYYYPEFDSAAGGRALQHAWRHHDAHLDDYRRHADALLQAVSIDNRRNLDAYVARLFA", "soluble on expression in E. coli": "not soluble"}, {"sequence": "MGSDKIHHHHHHMVKFIHCSDLHLDSPFKSKSHISPKIFEDVQKSAYESFKNIVDIALQQDVDFVIIAGDLFDSENRTLRAEIFLKQQFERLQNEQIFVYVCHGNHDPLSSKISSNWPDNVSVFSNKVETYEAITKSGETIYIHGFSYENRASYENKIDEYPSSQGQKGIHIGVLHGTYSKSSVNERYTEFILEDLNSKLYHYWALGHIHERQQLSDMPVINYSGNIQGRHFNEQGEKGCLLIEGDHLKLKTKFYPTQYIRFEEATIETDKTSKQGLYEVIQNFKEQVREEGKAFYRLTLVINSETLISPQDLLQVEEMITDYEENENQFVYIDELKIQYAQNDESPLVNEFSAELLVDQTVFDKAMSDLYLNPRASKFLDDYGTFDHTALVNRAEEILKAEMRGEQNDN", "soluble on expression in E. coli": "not soluble"}, {"sequence": "MGSDKIHHHHHHMVKMNMSDIDISEPLSDLLAPLNNEQREFLMNNYTIQTYKKNETIYCEGETPSHLMCLITGKVKIFKDGVGGRSQIIRMIKQREYFAYRAYFAKEDFVTAAAAFEPSVICLIPMTAITTLVAQNNDLAMFFIRQLSIDLGISDERTVSLTQKHIRGRLAESLIFLKESYGLEEDGSTLSIYLSREDLANLSNMTTSNAIRTLSQFATERLITIDGRKIKIIEEEKLKKISKIG", "soluble on expression in E. coli": "not soluble"}, {"sequence": "MGSDKIHHHHHHMVMDHDIYFGYQRPRPTEYVQFANFDSRQLNLYLAGRIANNPPTKEVTESIGYMDGIIDFSDILGRRIFDNRTIEYQFKALNINYHDRKLLEQKCKRLLLIPMRQPIYDSHDLPFYWFGKASSVTANDDHVNNVLEITVQFNVSPYALRKGQFDDIWDNFSLETGYAQFTKYSVKGTKKISLYNDSDLKSRLKVICQNDMTINGKYKYTKNYQDNPNFRLEPGINDLTVNGNGDIEFQWESEVML", "soluble on expression in E. coli": "not soluble"}, {"sequence": "MGSDKIHHHHHHMVNGNITQLSDMQIPENWGAYLAEKSTQNNAFFTSGVVQNVPQIAALLGAGKVANMPLFKPLADDDPQVPDDTTDLLVNKITTDLAQARKLGFDQAWSATDLSAELSGADPLSAIGDQVSDYWSHVYEKLLLQTLTGVFSSTSMKGVNQLDTTTDKTDTTFSLKNFNKARFLLGDRYKDLAIVAVHSDILRQLQDANLVDAKNNSTFVLNGNSNVPTAIQTPDAGDKIKGVQIVVDDSLPVDNGKYTSYLFAQGAVGYSELPVTNAVETNRDPLKNHGIDYLVNRRRFVFAPQGLSWNESNFVTKNPGKTYPSMTDLADGTNWSKVYDHKLIPMAQFVTSADAIVPSTTADPQTGK", "soluble on expression in E. coli": "not soluble"}, {"sequence": "MGSDKIHHHHHHMVNHTQFRQWGRKVIDIEKAALDNLYQYVDSVEFDQACQLIMQCKGKVIVMGMGKSGHIGNKISATFASTGTPAFFVHPGEASHGDLGALAKNDIVLAISNSGESSEILTLMPVIQRMGVPVIAVTGKPDSNMARLSKIHLCIQVQEEACPLGLAPTSSTTATLAMGDALAIALLQAKGFTRDDFALSHPGGSLGRKLLLKVDDVMHQGDDLPIVNDDICITDALYEISKKGLGMTAVVDHASKLVGIFTDGDLRRVIDADVNLRTTSIAHVMTKNCVTSPAGILAAQALQIMDEKSINGLIVVNEKHQPIGALNMLDMVKAGVI", "soluble on expression in E. coli": "not soluble"}, {"sequence": "MGSDKIHHHHHHMVNNQLELEVKSFLEGQSDFANLPSSEITRLSQVIRKKKIRQGQWIFDQEDEFEYVFLMKEGHVKLFSMNLEGDMTSVSYIVPQMVFPLRGILQGRKYCYNAVAMCTSEVYILPIKEMRKIIVHHYAFTMAFMRRMEHRLHRSEKLLEKTTCSSAAQRVRQVLDYLNEDYAQTHGTVKKVPFKIFLKDLAVLSATTSETAGSVIKAMKEEKKVLYNNKIISFI", "soluble on expression in E. coli": "not soluble"}]}]}
